Source: patent US20110286916A1

Columns and labels:
[1] = molecular target: endogenous human Notch1 on 293 FlpIn (TREx) parental, LS-1034 and BxPC3 cells (human) (UniProt P46531); experiment: FACS, LS-1034 and BxPC3 cells
[2] = molecular target: human full-length Notch1 with C-terminal FLAG tag, stably expressed on 293 FlpIn (TREx) cells (human) (UniProt P46531); experiment: FACS, 293 FlpIn (TREx) cells expressing Notch1

- MFI [1]: 9
- MFI [2]: 9
Substance: IgG isotype control antibody
